# Results published in paper PMC5686756, “IKKγ-Mimetic Peptides Block the Resistance to Apoptosis Associated with Kaposi's Sarcoma-Associated Herpesvirus Infection” (Journal of Virology, 2017).
# Positions of bridges follow the written chain, without caps; N, C: chain ends. Non-standard residues stand in square brackets, D forms with d. No end group written: not given here. S5 = C=CCCC[C@](C)(N)C(=O)O
# B1: IKKγ fragment encompassing residues 150 to 272 (domain or fragment, UniProt Q9Y6K9 150-272, looked up)
# chain: LGELQESQSRLEAATKECQALEGRARAASEQARQLESEREALQQQHSVQVDQLRMQGQSVEAALRMERQAASEEKRKLAQLQVAYHQLFQEYDNHIKSSVVGSERKRGMQLEDLKQQLQQAEE
# notes: also called IKKγ(150–272); NEMO
# Experiments:
# [1] = target: T1, GB1-tagged ks-vFLIP (residues 1 to 188) (Kaposi's sarcoma-associated herpesvirus …, UniProt Q76RF1 1-188); test: ITC; competition: GB1–ks-vFLIP first incubated with 20 μM spIKKγ and 4% DMSO, then titrated with IKKγ(150–272); deionized water, 25°C; apparent; settings: both partners purified
# T1 construct: KSHV vFLIP (ks-vFLIP), residues 1 to 188, cloned into GB1-pBR22b (modified pET22b); GB1 is the streptococcal protein G immunoglobulin domain fusion tag; also called GB1–ks-vFLIP; GB1-vFLIP; source: E. coli BL21(DE3), purified (His-trap, Superdex S75 size exclusion); not shown: GB1, N-terminal, kept
# [2] = target: T1, GB1-tagged ks-vFLIP (residues 1 to 188); test: ITC; IKKγ(150–272) (~85-100 μM, syringe) titrated into GB1-vFLIP (~8-10 μM, cell); deionized water, 4% DMSO, 25°C; one-site model; apparent; settings: both partners purified
Binder,apparent Kd in the presence of spIKKγ (20 μM) [1],Kd [2],Ki [1]
B1,30000 nM,380 nM,–
"LQVAYH[S5]LFQ[S5]YDNHIKSSC (staple 7-11) [spIKKγ, conformationally constrained stapled 20-mer peptide of the IKKγ minimal interacting motif (L]",–,–,257 nM
